Measurements reported in the DeepSol protein solubility set.

Assay: soluble on expression in E. coli; label from the status in PepcDB or PDB records

| Sequence | soluble on expression in E. coli |
| --- | --- |
| MGHHHHHHSHMLLAASKVLDRLKPVIGVNTDPERSEGHLCLPVRYTHSFPEALQKFYRGEFRWLWRQRIRLYLEGTGINPVPVDLHEQQLSLNQHNRALNIERAHDERSEASGPQLLPVRALNEVFIGESLSSRASYYEISVDDGPWEKQKSSGLNLCTGTGSKAWSFNINRVATQAVEDVLNIAKRQGNLSLPLNRELVEKVTNEYNESLLYSPEEPKILFSIREPIANRVFSSSRQRCFSSKVCVRSRCWDACMVVDGGTSFEFNDGAIASMMINKEDELRTVLLEQ | not soluble |
| MGHHHHHHSHMNCCGIWPFGKPGVPYKRLADVETDERMEMEIRLGMPPGVLAADLIRSTKDKQVLEQLYLLAVQANNLTEHIKRFTLGEIPEECKNVTRSQLEKLKSVQHIIWNTMISLAAGAISVDEATLPALLDKRAEETVALLEMEKIATAVKLDETAAWATDIAGIVSSQPLATPPSESPDQIALKKATQLSNAVY | soluble |
| MGHHHHHHSHMPQFSPSYSFPVQIYYEDTDFSGVVYHPNFLKYFERAREHVIGAEQLRNLWQQQQLGFAVYRSDMLCHEGVEFADIIDIRTKFYFESKYRTVWHQEIWRPNGKKPAVTATIEMVCMNQARQLAPMPAELITQLSLGM | soluble |
| MGHHHHHHSHMQHFKRTGTGTPVKRVRKAIEKSETTSEHTCQLCGGWFDTKIGLSNHVRGHLKRLGKTKWDAHKSPICVLNEMMQNEEKYEKILKALNSRRIIPRPFVAQKLASSDDFISQNVIPLEAYRNGLKTEALSVSASEEEGLNFLNEYDETKPELPSGKKNQSLTLIELLKNKRMGEERNSAISPQKIHNQTARKRFVQKCVLPLNEDSPLMYQPQKMDLTMHSALDCKQKKSRSRSGSKKKMLTLPHGADEVYILRCRFCGLVFRGPLSVQEDWIKHLQRHIVNANLPRTGAGMVEVTSLLKKPASITETSFSLLMAEAAS | not soluble |
| MGHHHHHHSHMRRFQRSTVIDAPRELVWAFHEQADVLEQLTPPWLPVEVVRREGGLGPGAVSEFRLWLGPVPIRWVATHNDDYEPGRCFCDRQSQGPFADWLHRHIFSREGDRTRLIDEVEYALPGGWLPELSVCPVVDAQLERLFAYRQQVTKQWCESRRDAFLQSNRTTKGLQSL | not soluble |
| MGHHHHHHSHMSDAGMPSLSDPGMSLAAYALKHNIQYDVLPGANALTTAFCASGFLEGRFFYAGFLPHKSKERRLKIAKILNALAYLEEKTPVVFYESPHRLLETLKDLNDLAKGMHLFAAKELTKLHQQYYLGEVSQIIERLQQSTIQGEWVLVLLNEKKIEPCMGLSALLELDLPPKIKAKIEAVMTQKNAKELYFQRLLEEKNQ | not soluble |
| MGHHHHHHSHMSFSKESSRLFGFVAGIKFPKMIQKVINENYVKYFNINMSEFKAPCEYESLNALFTRTLQIPRKFEEGFISPSDGKILECGSTFLANEEHFAFSIKGHAYSVEELLKDSFEKDELKNGLDYVNIYLSPKDYHRYHSPCDMQILSATYTSGVLYSVNEKHLERISNLYVKNERVSLKCQNEKGIFWLVFVGAQNVGKMRFNFDASIQTNAKISHNFTRKYENLNFKKGEELGNFELGSTIVLISQKGLLTFNLKVGQGIKFGEKIAD | soluble |
| MGHHHHHHSHMSIPSSQYGFVFNKQSGLKLRNDLPVHKPKAGQLLLKVDAVGLCHSDLHVIYEGLDCGDNYVMGHEIAGTVAAVGDDVINYKVGDRVACVGPNGCGGCKYCRGAIDNVCKNAFGDWFGLGYDGGYQQYLLVTRPRNLSRIPDNVSADVAAASTDAVLTPYHAIKMAQVSPTSNILLIGAGGLGGNAIQVAKAFGAKVTVLDKKKEARDQAKKLGADAVYETLPESISPGSFSACFDFVSVQATFDVCQKYVEPKGVIMPVGLGAPNLSFNLGDLALREIRILGSFWGTTNDLDDVLKLVSEGKVKPVVRSAKLKELPEYIEKLRNNAYEGRVVFNP | soluble |
| MGHHHHHHSHMSPAPVIPSNTDYPGPHHFEVTFQQSSTAKSATWTYSPLLKKLYCQIAKTCPIQIKVSTPPPPGTAIRAMPVYKKAEHVTDVVKRCPNHELGRDFNEGQSAPASHLIRVEGNNLSQYVDDPVTGRQSVVVPYEPPQVGTEFTTILYNFMCNSSCVGGMNRRPILIIITLEMRDGQVLGRRSFEGRICACPGRDRKADEDHYREQQALNE | soluble |
| MGHHHHHHSHMTLEELVACDNAAQKMQTVTAAVEELLVAAQRQDRLTVGVYESAKLMNVDPDSVVLCLLAIDEEEEDDIALQIHFTLIQSFCCDNDINIVRVSGNARLAQLLGEPAETQGTTEARDLHCLPFLQNPHTDAWKSHGLVEVASYCEESRGNNQWVPYISLQER | soluble |
| MGHHHHHHSHMVAHNQVAADNAVSTAAEPRRRPEPSSSSSSSPAAPARPRPCPAVPAPAPGDTHFRTFRSHADYRRITRASALLDACGFYWGPLSVHGAHERLRAEPVGTFLVRDSRQRNCFFALSVKMASGPTSIRVHFQAGRFHLDGSRESFDCLFELLEHYVAAPRRMLGAPLRQRRVRPLQELCRQRIVATVGRENLARIPLNPVLRDYLSSFPFQI | not soluble |
| MGHHHHHHSHMVGSRRVKAQTFAERRERSFSRSWSDPTPMKADTSHDSRDSSDLQSSHCTLDEAFEDLDWDTEKGLEAVACDTEGFVPPKVMLISSKVPKAEYIPTIIRRDDPSIIPILYDHEHATFEDILEEIERKLNVYHKGAKIWKMLIFCQGGPGHLYLLKNKVATFAKVEKEEDMIHFWKRLSRLMSKVNPEPNVIHIMGCYILGNPNGEKLFQNLRTLMTPYRVTFESPLELSAQGKQMIETYFDFRLYRLWKSRQHSKLLDFDDVL | not soluble |
| MGHHHHHHSHMVPGSEGPARAGSVVADVVFVIEGTANLGPYFEGLRKHYLLPAIEYFNGGPPAETDFGGDYGGTQYSLVVFNTVDCAPESYVQCHAPTSSAYEFVTWLDGIKFMGGGGESCSLIAEGLSTALQLFDDFKKMREQIGQTHRVCLLICNSPPYLLPAVESTTYSGCTTENLVQQIGERGIHFSIVSPRKLPAL | not soluble |
| MGHHHHHHSHMVSPSKAVIVPGKIGGDETTHGWYGWVKKELEKIPGFQCLAKNMPDPITARESIWLPFMETELHCDEKTIIIGHSSGAIAAMRYAETHRVYALILVSAYTSEFGDENERASGYFSRPWQWEKIKANCPHIVQFGSTDDPFLPWKEQQEVADSWTPNCTNSLTVVTFRTQSSMN | not soluble |
| MGHHHHHHSHMYFVGCGYNAFPVGSEYADFPHMDDKQKDREIRKFRYIIHAEQNALTFRCQEIKPEERSMIFVTKCPCDECVPLIKGAGIKQIYAGDVDVGKKKADISYMRFGELEGVSKFTWQLNPSGAYGLEQNEPERRERDLSHRRKSSTRTRSCASESTKKACLHCRGTSRTFHCTSKIQPCSFRK | not soluble |
| MGHHHHHHSHRRERACPERALDLENIMRKFSGSCRCCAKQIKFYRMRHHYKSCKKYQDEYGVSSIIPNFQISQDSVGNSNRSETSTSDNTETYQENTSSSGHPTFKCPLCQESNFTRQRLLDHCNSNHLFQIVPVTCPICVSLPWGDPSQITRNFVSHLNQRHQFDYGEFVNLQLDEETQYQTAVEESFQVNI | not soluble |
| MGHHHHHHSHSGGRNKIRKILDKTRFSILPPKLFSDGGLSQSQDDSIVGTRHCRHSLAIMPIPGTLSSSSPDLLQPTTSMLDFSNPSDIPDQVIRVFKVDQQSCYIIISKDTTAKEVVFHAVHEFGLTGASDTYSLCEVSVTPEGVIKQRRLPDQFSKLADRIQLNGRYYLKNNMETETLC | not soluble |
| MGHHHHHHSHSIKPSTNLVFAKVLEKTRHPNANHLNLVKVKANQKVYEIVCGANNFSVHNWVVLAKLNAELANGLKITPRELRGYVSNGMLCAYSEINPQATSFLTSTDLDGILVLDDNYDHYKTPNQIFNLDDVILDLSIPSNRNDLNGYFWIAKELCAYFDFEYVVDATINHRPHKEIIDVRI | not soluble |
| MGIHKPKFYAVRAGRDKGVFSSWEECRKAIYGFSGAVYRSFPTLEEAQAWFKGETLSDPLKAEDDSLRDDRTEYDVYTDGSYVNGQYAWAYAFVKDGKVHYEDADVGKNPAAATMRNVAGEIAAALYAVKKASQLGVKIRILHDYAGIAFWATGEWKAKNEFTQAYAKLMNQYRGIYSFEKVKAHSGNEFNDYVDMKAKSALGIRDLEHHHHHH | not soluble |
| MGILDKVKNLLSQNADKVETVINKAGEFVDEQTQGNYSDAIHKLHDAASNVVGMSDQQS | soluble |
| MGKATWRQVWERARALAGAAALAVLAGCAAPGAQDPGQARNTAREAYIYAYPMLYHYRSMYEQAIDTASPAYLGGFGVFQHRAEPYTPQSVDVATPNVDTLYSRAWLDLRAEPWVLSLPAVPKSRYNAFQLVDMYTYNLAYLGTRATGFGSGHYLIAGPGWTGPVPKGITQVVRADTDFVAVLGRTALNGPADIKAVHALQARYGLRPLSAYTGTAAPAGAPPVDWLPWNEQRASSIGFIAYLNQLLAHTQPQPESEADMMARFARIGVAPGRDFEPARLDAATRRAMDAGIVDAQQAIEQGARHAAAPATPASLYGSREQLGGDYLKRAVAAAVGIYGNTADEAIYLTIGEDAQGRPLDGARAYELRFAPGRQPPVRFFWSISVYALPARGLAENPIDRYAIGSRTKGIKRGRDGSLTVYLQHDAPARAHAPNWLPTPAGPFVVVARFYGPQPALRDGAWVMPALVPARLEHHHHHH | not soluble |
| MGKMRTPQEVPARLDALAEAARKLKFDVREPVDAGAGAIGAVHSLDYLRFLREAHARWKQLPDDWGDEVVSNVFVREPNALRGVLAQAARYLADGSCPVGPHTWQSAYWAAQCAISGAQTLLDGERHAYALCRPPGHHARRDAAGGFCYLNNAAIAAQMLTQRYKRVAILDTDMHHGQGIQEIFYERSDVLYVSIHGDPENFYPVVAGFENERGAGEGYGYNVNLPMPHGSPEPVFFDRLQQAQRAIELFQPDALVLSLGFDVFEKDPQAMVAVSANGFERLGQAIGAFKLPTLIVQEGGYYIEGLEDNAERFFAGLAKALEHHHHHH | not soluble |
| MGKNVVVLGTQWGDEGKGKVVDLLTERAKYVVRYQGGHNAGHTLVINGEKTVLHLIPSGILRENVISIIGNGVVLAPDALMKEMTELEARGVPVRERLLLSEACPLILPYHVALDNAREKARGAKAIGTTGRGIGPAYEDKVARRGLRVSDLFNKETFAIKLKEIVEYHNFQLVHYYKEAAVDYQKVLDDVLAIADILTAMVVDVSELLDNARKQGELIMFEGAQGTLLDIDHGTYPYVTSSNTTAGGVATGSGLGPRYVDYVLGIVKAYSTRVGAGPFPTELNDETGEFLRKQGNEYGATTGRSRRTGWLDIVAVRRAVQINSLSGFCMTKLDVLDGLKEVKLCVGYRMPDGREVDTTPLAAEGWEGIEPIYETMPGWSETTFGVKEHSKLPQAALNYIQRVEELTGVPIDIISTGPDRDETMILRDPFDA | soluble |
